Test results published in US20190144550A1.

Biological target: wild-type EGFR expressed on cells (human) (UniProt P00533)
Test: flow cytometry, A431 cells

MFI: 185
Substance: FITC-conjugated goat anti-mouse Fc specific secondary antibody
